For this data set the following is noted: Aspergillus oryzae (strain ATCC 42149 / RIB 40), 25 °C, CD, Glycine hydrochloride 0.05 M, reversible: Yes, whole UniProt chain shown.

Values joined by “and” are separate entries in the source; they are usually repeats but may differ in a detail not shown here. Equal values may be shown once.

B1: Guanyl-specific ribonuclease T1 wild type, P00651 (protein)
chain: MMYSKLLTLTTLLLPTALALPSLVERACDYTCGSNCYSSSDVSTAQAAGYQLHEDGETVGSNSYPHKYNNYEGFDFSVSSPYYEWPILSSGDVYSGGSPGADRVVFNENNQLAGVITHTGASGNNFVECT
With B1, for the setting “pH 3, Urea”, the denaturant m value was 1.57 kcal/mol/M and 1.73 kcal/mol/M and 2.04 kcal/mol/M; the “denaturant midpoint (higher = more stable)” value (“denaturant midpoint” below) is 3.8 M and 3.2 M and 3.1 M; the unfolding free energy was 6.01 kcal/mol and 5.54 kcal/mol and 6.36 kcal/mol. In addition, under “pH 5.5, GdnHCl”, the “denaturant midpoint” value is 4.3 M and 3.7 M; the unfolding free energy is 9.29 kcal/mol and 9.48 kcal/mol and 9.37 kcal/mol. Besides, for the setting “pH 6, GdnHCl”, the “denaturant midpoint” value is 3.8 M and 3.7 M; the unfolding free energy amounted to 10.2 kcal/mol.

These data come from FireProtDB (doi:10.1016/j.bpc.2005.09.016).
